Measured values published in patent publication US20090291890A1 (published 2009).
Changes are numbered by the printed parent chain. Names and notes keep the numbering of the source. Blank lines part the entries; values can stand above or below the binder they belong to.

Assays:
[1] = molecular target: Factor X (Homo sapiens (Human)) (UniProt P00742)
[2] = molecular target: T1, Mesyl-dFPR-ACC
T1 sequence (peptide, N-terminal mesyl; D-Phe at position 1 (dF); C-terminal ACC fluorophore): FPR

[3] = molecular target: T2, soluble tissue factor (recombinant human Coagulation Factor III/soluble tissue factor; R&D Systems) (human); assay: SPR (Biacore T100), sTF on chip, two-state fit
T2 chain: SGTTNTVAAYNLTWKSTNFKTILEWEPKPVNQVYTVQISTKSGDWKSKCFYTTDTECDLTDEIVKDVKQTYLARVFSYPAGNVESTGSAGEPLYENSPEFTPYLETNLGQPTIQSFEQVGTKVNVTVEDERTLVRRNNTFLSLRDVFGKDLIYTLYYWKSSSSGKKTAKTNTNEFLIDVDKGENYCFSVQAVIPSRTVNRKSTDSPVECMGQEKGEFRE

B5: S222A/T239I-FVIIa (enzyme)
chain: ANAFLEELRPGSLERECKEEQCSFEEAREIFKDAERTKLFWISYSDGDQCASSPCQNGGSCKDQLQSYICFCLPAFEGRNCETHKDDQLICVNENGGCEQYCSDHTGTKRSCRCHEGYSLLADGVSCTPTVEYPCGKIPILEKRNASKPQGRIVGGKVCPKGECPWQVLLLVNGAQLCGGTLINTIWVVSAAHCFDKIKNWRNLIAVLGEHDLSEHDGDEQARRVAQVIIPSTYVPGTINHDIALLRLHQPVVLTDHVVPLCLPERTFSERTLAFVRFSLVSGWGQLLDRGATALELMVLNVPRLMTQDCLQQSRKVGDSPNITEYMFCAGYSDGSKDSCKGDSGGPHATHYRGTWYLTGIVSWGQGCATVGHFGVYTRVSQYIEWLQKLMRSEPRPGVLLRAPFP
kcat/KM (M^-1s^-1), TF-dependent assay [1]: 3.05e+07 M⁻¹ s⁻¹
kcat/KM, TF-independent assay [1]: 1.7 M⁻¹ s⁻¹
Activity (µmol/sec/µmol), specific activity for mesyl-dFPR-ACC (µmol/sec/µmol) [2]: 1.36

B6: T239I/Q286R/H373F-FVIIa (enzyme)
chain: B5 chain with A222S, Q286R, H373F
kcat/KM (M^-1s^-1), TF-dependent assay [1]: 6.18e+07 M⁻¹ s⁻¹
Activity (µmol/sec/µmol), specific activity for mesyl-dFPR-ACC (µmol/sec/µmol) [2]: 1.24

B7: S52A/S60A/Q286R/H373F-FVIIa (enzyme)
chain: B5 chain with S52A, S60A, A222S, I239T, Q286R, H373F
kcat/KM (M^-1s^-1), TF-dependent assay [1]: 9.44e+07 M⁻¹ s⁻¹
kcat/KM, TF-independent assay [1]: 30.1 M⁻¹ s⁻¹
Activity (µmol/sec/µmol), specific activity for mesyl-dFPR-ACC (µmol/sec/µmol) [2]: 3.14

B9: T239I/Q286R/M298Q/H373F-FVIIa (enzyme)
chain: B5 chain with A222S, Q286R, M298Q, H373F
kcat/KM (M^-1s^-1), TF-dependent assay [1]: 1.08e+08 M⁻¹ s⁻¹
kcat/KM, TF-independent assay [1]: 13.1 M⁻¹ s⁻¹
Activity (µmol/sec/µmol), specific activity for mesyl-dFPR-ACC (µmol/sec/µmol) [2]: 1.59

B10: T239V/Q286R/H373F-FVIIa (enzyme)
chain: B5 chain with A222S, I239V, Q286R, H373F
kcat/KM (M^-1s^-1), TF-dependent assay [1]: 1.06e+08 M⁻¹ s⁻¹
kcat/KM, TF-independent assay [1]: 12.2 M⁻¹ s⁻¹
Activity (µmol/sec/µmol), specific activity for mesyl-dFPR-ACC (µmol/sec/µmol) [2]: 1.53

B14: V158D/T239I/E296V/M298Q-FVIIa (enzyme)
chain: B5 chain with V158D, A222S, E296V, M298Q
kcat/KM (M^-1s^-1), TF-dependent assay [1]: 1.45e+08 M⁻¹ s⁻¹
kcat/KM, TF-independent assay [1]: 216 M⁻¹ s⁻¹
Activity (µmol/sec/µmol), specific activity for mesyl-dFPR-ACC (µmol/sec/µmol) [2]: 2.24

B17: T239I/Q286R-FVIIa (enzyme)
chain: B5 chain with A222S, Q286R
kcat/KM (M^-1s^-1), TF-dependent assay [1]: 5.79e+07 M⁻¹ s⁻¹
kcat/KM, TF-independent assay [1]: 4.6 M⁻¹ s⁻¹
Activity (µmol/sec/µmol), specific activity for mesyl-dFPR-ACC (µmol/sec/µmol) [2]: 0.88

B19: T239V/Q286R/M298Q/H373F-FVIIa (enzyme)
chain: B5 chain with A222S, I239V, Q286R, M298Q, H373F
kcat/KM (M^-1s^-1), TF-dependent assay [1]: 1.7e+08 M⁻¹ s⁻¹
kcat/KM, TF-independent assay [1]: 40.7 M⁻¹ s⁻¹
Activity (µmol/sec/µmol), specific activity for mesyl-dFPR-ACC (µmol/sec/µmol) [2]: 3.07

B20: H257A/Q286R/M298Q-FVIIa (enzyme)
chain: B5 chain with A222S, I239T, H257A, Q286R, M298Q
kcat/KM, TF-dependent assay [1]: 1.13e+08 M⁻¹ s⁻¹
kcat/KM, TF-independent assay [1]: 61.5 M⁻¹ s⁻¹
Activity (µmol/sec/µmol), specific activity for mesyl-dFPR-ACC (µmol/sec/µmol) [2]: 2.18

B21: S222A/H257S/Q286R/M298Q-FVIIa (enzyme)
chain: B5 chain with I239T, H257S, Q286R, M298Q
kcat/KM (M^-1s^-1), TF-dependent assay [1]: 1.58e+08 M⁻¹ s⁻¹
Activity (µmol/sec/µmol), specific activity for mesyl-dFPR-ACC (µmol/sec/µmol) [2]: 1.77

B22: S222A/Q286R/M298Q-FVIIa (enzyme)
chain: B5 chain with I239T, Q286R, M298Q
kcat/KM (M^-1s^-1), TF-dependent assay [1]: 1.29e+08 M⁻¹ s⁻¹
kcat/KM, TF-independent assay [1]: 253 M⁻¹ s⁻¹
Activity (µmol/sec/µmol), specific activity for mesyl-dFPR-ACC (µmol/sec/µmol) [2]: 1.9

B24: S222A/T239V-FVIIa (enzyme)
chain: B5 chain with I239V
kcat/KM (M^-1s^-1), TF-dependent assay [1]: 7.49e+07 M⁻¹ s⁻¹
kcat/KM, TF-independent assay [1]: 3 M⁻¹ s⁻¹
Activity (µmol/sec/µmol), specific activity for mesyl-dFPR-ACC (µmol/sec/µmol) [2]: 1.91

B25: T239I/Q286R/M298Q-FVIIa (enzyme)
chain: B5 chain with A222S, Q286R, M298Q
kcat/KM (M^-1s^-1), TF-dependent assay [1]: 1.13e+08 M⁻¹ s⁻¹
kcat/KM, TF-independent assay [1]: 11.3 M⁻¹ s⁻¹
Activity (µmol/sec/µmol), specific activity for mesyl-dFPR-ACC (µmol/sec/µmol) [2]: 1.37

B26: V158D/E296V/M298Q/H373F-FVIIa (enzyme)
chain: B5 chain with V158D, A222S, I239T, E296V, M298Q, H373F
kcat/KM, TF-dependent assay [1]: 1.51e+08 M⁻¹ s⁻¹
kcat/KM, TF-independent assay [1]: 1300 M⁻¹ s⁻¹
Activity (µmol/sec/µmol), specific activity for mesyl-dFPR-ACC (µmol/sec/µmol) [2]: 5.6

B28: S222A/T239I/H257A/Q286R/M298Q-FVIIa (enzyme)
chain: B5 chain with H257A, Q286R, M298Q
kcat/KM (M^-1s^-1), TF-dependent assay [1]: 1.14e+08 M⁻¹ s⁻¹
kcat/KM, TF-independent assay [1]: 51.6 M⁻¹ s⁻¹
Activity (µmol/sec/µmol), specific activity for mesyl-dFPR-ACC (µmol/sec/µmol) [2]: 1.41

Continued, values first:

kcat/KM (M^-1s^-1), TF-dependent assay [1]: 2.1e+08 M⁻¹ s⁻¹
kcat/KM, TF-independent assay [1]: 415 M⁻¹ s⁻¹
Activity (µmol/sec/µmol), specific activity for mesyl-dFPR-ACC (µmol/sec/µmol) [2]: 1.12
B1: Gla swap FIX/S222A/Q286R/M298Q-FVIIa (enzyme)
chain: YNSGKLEEFVQGNLERECMEEKCSFEEAREVFENTERTTEFWKQYSDGDQCASSPCQNGGSCKDQLQSYICFCLPAFEGRNCETHKDDQLICVNENGGCEQYCSDHTGTKRSCRCHEGYSLLADGVSCTPTVEYPCGKIPILEKRNASKPQGRIVGGKVCPKGECPWQVLLLVNGAQLCGGTLINTIWVVSAAHCFDKIKNWRNLIAVLGEHDLSEHDGDEQARRVAQVIIPSTYVPGTTNHDIALLRLHQPVVLTDHVVPLCLPERTFSERTLAFVRFSLVSGWGRLLDRGATALELQVLNVPRLMTQDCLQQSRKVGDSPNITEYMFCAGYSDGSKDSCKGDSGGPHATHYRGTWYLTGIVSWGQGCATVGHFGVYTRVSQYIEWLQKLMRSEPRPGVLLRAPFP

kcat/KM, TF-dependent assay [1]: 3.88e+07 M⁻¹ s⁻¹
kcat/KM, TF-independent assay [1]: 30.5 M⁻¹ s⁻¹
Activity (µmol/sec/µmol), specific activity for mesyl-dFPR-ACC (µmol/sec/µmol) [2]: 0.75
B2: Gla swap FIX/T128N/P129A/A175S/S222A/Q286R-FVIIa (enzyme)
chain: B1 chain with T129N, P130A, A176S, Q299M

Kd [3]: 36 nM
B3: FVIIa Gla swap FIX (enzyme)
chain: B1 chain with A223S, R287Q, Q299M

kcat/KM (M^-1s^-1), TF-dependent assay [1]: 1.17e+08 M⁻¹ s⁻¹
kcat/KM, TF-independent assay [1]: 65.9 M⁻¹ s⁻¹
Activity (µmol/sec/µmol), specific activity for mesyl-dFPR-ACC (µmol/sec/µmol) [2]: 2.35
B4: Q286R/M298Q/Q366N-FVIIa (enzyme)
chain: B5 chain with A222S, I239T, Q286R, M298Q, Q366N

kcat/KM (M^-1s^-1), TF-dependent assay [1]: 1.52e+08 M⁻¹ s⁻¹
kcat/KM, TF-independent assay [1]: 30.4 M⁻¹ s⁻¹
Activity (µmol/sec/µmol), specific activity for mesyl-dFPR-ACC (µmol/sec/µmol) [2]: 2.32
B8: H257S/Q286R/M298Q/H373F-FVIIa (enzyme)
chain: B5 chain with A222S, I239T, H257S, Q286R, M298Q, H373F

Kd [3]: 10.8 nM
B11: FVIIa K109N (enzyme)
chain: B5 chain with K109N, A222S, I239T

Affinity Kd-WT/Kd-mut [3]: 0.6
Kd [3]: 12.3 nM
B12: FVIIa A175S (enzyme)
chain: B5 chain with A175S, A222S, I239T

kcat/KM (M^-1s^-1), TF-dependent assay [1]: 1.4e+08 M⁻¹ s⁻¹
kcat/KM, TF-independent assay [1]: 27.4 M⁻¹ s⁻¹
Activity (µmol/sec/µmol), specific activity for mesyl-dFPR-ACC (µmol/sec/µmol) [2]: 1.85
B13: H257S/Q286R/M298Q-FVIIa (enzyme)
chain: B5 chain with A222S, I239T, H257S, Q286R, M298Q

kcat/KM (M^-1s^-1), TF-dependent assay [1]: 7.21e+07 M⁻¹ s⁻¹
kcat/KM, TF-independent assay [1]: 96.4 M⁻¹ s⁻¹
Activity (µmol/sec/µmol), specific activity for mesyl-dFPR-ACC (µmol/sec/µmol) [2]: 4
B15: M298Q/H373F-FVIIa (enzyme)
chain: B5 chain with A222S, I239T, M298Q, H373F

kcat/KM (M^-1s^-1), TF-dependent assay [1]: 9.01e+07 M⁻¹ s⁻¹
kcat/KM, TF-independent assay [1]: 81.6 M⁻¹ s⁻¹
Activity (µmol/sec/µmol), specific activity for mesyl-dFPR-ACC (µmol/sec/µmol) [2]: 0.78
B16: Q286R/H373F-FVIIa (enzyme)
chain: B5 chain with A222S, I239T, Q286R, H373F

kcat/KM (M^-1s^-1), TF-dependent assay [1]: 1.36e+08 M⁻¹ s⁻¹
kcat/KM, TF-independent assay [1]: 115 M⁻¹ s⁻¹
Activity (µmol/sec/µmol), specific activity for mesyl-dFPR-ACC (µmol/sec/µmol) [2]: 4.59
B18: Q286R/M298Q/H373F-FVIIa (enzyme)
chain: B5 chain with A222S, I239T, Q286R, M298Q, H373F

Affinity Kd-WT/Kd-mut [3]: 2.3
Kd [3]: 3.4 nM
B23: FVIIa S222A/Q286R (enzyme)
chain: B5 chain with I239T, Q286R

Affinity Kd-WT/Kd-mut [3]: 1.2
Kd [3]: 6.6 nM
B27: FVIIa H257S (enzyme)
chain: B5 chain with A222S, I239T, H257S
